# Experiments:
# Kv1.3 = biological target: T1, Kv1.3 (Homo sapiens, UniProt P22001); assay: cell-based; assay type: cell-based; conditions: 100% = no change, <100% = inhibition
# T1 construct: host or cells: HEK293 or CHO
# In short: (§1)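 Transfected HEK293 or CHO cells were exposed for at least 5 min to peptides at 200 nM and 20 μM final, tested in duplicate, in HEPES-buffered physiological saline. Activation was taken as peptide-plus-agonist current over control current ×100, and inhibition as 1 minus that ratio ×100. Each channel's control was its own reference compound.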
# Kv1.2 = biological target: T2, Kv1.2 (Homo sapiens, UniProt P16389); assay: cell-based; assay type: cell-based; conditions: 100% = no change, <100% = inhibition
# T2 construct: host or cells: HEK293 or CHO
# In short: as §1
# Kv1.1 = biological target: T3, Kv1.1 (Homo sapiens, UniProt Q09470); assay: cell-based; assay type: cell-based; conditions: 100% = no change, <100% = inhibition
# T3 construct: host or cells: HEK293 or CHO
# In short: as §1
# α4β2 = biological target: T4, α4β2 (Homo sapiens, UniProt P17787+P43681); assay: Ion channel panel (IonWorks Barracuda): α4β2; assay type: cell-based; conditions: 100% = no change, <100% = inhibition
# T4 construct: host or cells: HEK293 or CHO
# In short: as §1
# Nav1.7 = biological target: T5, Nav1.7 (Homo sapiens, UniProt Q15858); assay: cell-based; assay type: cell-based; conditions: 100% = no change; for Activity of Nav1.7 with peptide, expressed as a percentage of the reference compound: peptide at 0.2 μM; for Activity of Nav1.7 with peptide (percentage of the reference compound): peptide at 20 μM
# T5 construct: host or cells: HEK293 or CHO
# T5 sequence (Q15858 whole entry): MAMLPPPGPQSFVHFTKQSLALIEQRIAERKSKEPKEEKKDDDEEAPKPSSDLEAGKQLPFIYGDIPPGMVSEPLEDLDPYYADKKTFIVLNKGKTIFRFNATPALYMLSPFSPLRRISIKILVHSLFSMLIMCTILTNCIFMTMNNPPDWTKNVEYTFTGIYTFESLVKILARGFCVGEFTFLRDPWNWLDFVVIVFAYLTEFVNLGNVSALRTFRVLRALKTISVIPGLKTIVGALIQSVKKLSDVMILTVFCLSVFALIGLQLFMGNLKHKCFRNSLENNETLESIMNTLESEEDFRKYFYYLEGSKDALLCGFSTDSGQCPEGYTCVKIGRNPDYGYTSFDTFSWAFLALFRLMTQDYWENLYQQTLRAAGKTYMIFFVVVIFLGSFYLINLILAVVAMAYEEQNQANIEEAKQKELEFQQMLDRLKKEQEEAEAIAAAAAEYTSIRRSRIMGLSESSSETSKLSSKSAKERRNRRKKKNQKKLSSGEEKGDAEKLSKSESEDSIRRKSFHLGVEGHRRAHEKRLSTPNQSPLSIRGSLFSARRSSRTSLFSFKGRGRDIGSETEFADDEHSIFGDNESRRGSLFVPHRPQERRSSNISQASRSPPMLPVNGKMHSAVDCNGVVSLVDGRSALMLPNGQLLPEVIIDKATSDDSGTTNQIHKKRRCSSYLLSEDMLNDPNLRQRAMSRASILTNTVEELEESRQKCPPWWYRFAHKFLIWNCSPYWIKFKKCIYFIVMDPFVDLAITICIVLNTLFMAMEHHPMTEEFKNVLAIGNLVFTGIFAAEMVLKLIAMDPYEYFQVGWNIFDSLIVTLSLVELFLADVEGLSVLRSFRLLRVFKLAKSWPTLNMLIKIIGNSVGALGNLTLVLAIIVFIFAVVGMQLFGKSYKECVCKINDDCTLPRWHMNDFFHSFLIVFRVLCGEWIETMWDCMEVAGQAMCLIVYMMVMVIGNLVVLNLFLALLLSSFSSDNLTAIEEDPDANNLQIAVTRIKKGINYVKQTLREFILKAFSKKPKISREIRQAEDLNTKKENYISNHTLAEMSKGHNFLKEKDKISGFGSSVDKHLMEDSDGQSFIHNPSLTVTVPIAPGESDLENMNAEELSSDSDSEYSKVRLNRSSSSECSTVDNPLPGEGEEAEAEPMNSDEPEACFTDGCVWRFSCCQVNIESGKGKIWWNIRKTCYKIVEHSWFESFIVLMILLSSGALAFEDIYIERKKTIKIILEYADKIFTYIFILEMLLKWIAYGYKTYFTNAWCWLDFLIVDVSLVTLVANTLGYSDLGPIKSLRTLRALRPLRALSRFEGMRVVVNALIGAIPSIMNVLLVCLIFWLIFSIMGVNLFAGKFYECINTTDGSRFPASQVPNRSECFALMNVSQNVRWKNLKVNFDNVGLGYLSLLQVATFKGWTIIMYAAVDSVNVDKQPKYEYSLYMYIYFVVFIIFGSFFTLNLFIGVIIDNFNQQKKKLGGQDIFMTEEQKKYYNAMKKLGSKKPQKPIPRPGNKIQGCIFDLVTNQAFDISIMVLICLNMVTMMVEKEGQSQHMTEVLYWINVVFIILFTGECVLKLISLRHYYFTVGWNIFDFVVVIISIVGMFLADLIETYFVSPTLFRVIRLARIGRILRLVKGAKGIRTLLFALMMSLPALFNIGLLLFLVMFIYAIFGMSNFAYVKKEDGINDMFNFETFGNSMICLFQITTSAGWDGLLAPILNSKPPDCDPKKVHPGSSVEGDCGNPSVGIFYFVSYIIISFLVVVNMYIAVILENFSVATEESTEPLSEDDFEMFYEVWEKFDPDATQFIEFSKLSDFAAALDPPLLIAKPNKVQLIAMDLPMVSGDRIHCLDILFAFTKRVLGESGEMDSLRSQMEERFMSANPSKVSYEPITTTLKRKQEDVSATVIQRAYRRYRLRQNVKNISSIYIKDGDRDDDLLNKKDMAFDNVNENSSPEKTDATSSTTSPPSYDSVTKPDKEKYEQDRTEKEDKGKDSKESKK
# Nav1.5 = Nav1.5 (Homo sapiens, UniProt Q14524); assay: in vitro; conditions: 100% = no change; for Activity of Nav1.5 with peptide, expressed as a percentage of the reference compound: peptide at 0.2 μM; for Activity of Nav1.5 with peptide (percentage of the reference compound): peptide at 20 μM
# Nav1.5, sequence (Q14524 whole entry): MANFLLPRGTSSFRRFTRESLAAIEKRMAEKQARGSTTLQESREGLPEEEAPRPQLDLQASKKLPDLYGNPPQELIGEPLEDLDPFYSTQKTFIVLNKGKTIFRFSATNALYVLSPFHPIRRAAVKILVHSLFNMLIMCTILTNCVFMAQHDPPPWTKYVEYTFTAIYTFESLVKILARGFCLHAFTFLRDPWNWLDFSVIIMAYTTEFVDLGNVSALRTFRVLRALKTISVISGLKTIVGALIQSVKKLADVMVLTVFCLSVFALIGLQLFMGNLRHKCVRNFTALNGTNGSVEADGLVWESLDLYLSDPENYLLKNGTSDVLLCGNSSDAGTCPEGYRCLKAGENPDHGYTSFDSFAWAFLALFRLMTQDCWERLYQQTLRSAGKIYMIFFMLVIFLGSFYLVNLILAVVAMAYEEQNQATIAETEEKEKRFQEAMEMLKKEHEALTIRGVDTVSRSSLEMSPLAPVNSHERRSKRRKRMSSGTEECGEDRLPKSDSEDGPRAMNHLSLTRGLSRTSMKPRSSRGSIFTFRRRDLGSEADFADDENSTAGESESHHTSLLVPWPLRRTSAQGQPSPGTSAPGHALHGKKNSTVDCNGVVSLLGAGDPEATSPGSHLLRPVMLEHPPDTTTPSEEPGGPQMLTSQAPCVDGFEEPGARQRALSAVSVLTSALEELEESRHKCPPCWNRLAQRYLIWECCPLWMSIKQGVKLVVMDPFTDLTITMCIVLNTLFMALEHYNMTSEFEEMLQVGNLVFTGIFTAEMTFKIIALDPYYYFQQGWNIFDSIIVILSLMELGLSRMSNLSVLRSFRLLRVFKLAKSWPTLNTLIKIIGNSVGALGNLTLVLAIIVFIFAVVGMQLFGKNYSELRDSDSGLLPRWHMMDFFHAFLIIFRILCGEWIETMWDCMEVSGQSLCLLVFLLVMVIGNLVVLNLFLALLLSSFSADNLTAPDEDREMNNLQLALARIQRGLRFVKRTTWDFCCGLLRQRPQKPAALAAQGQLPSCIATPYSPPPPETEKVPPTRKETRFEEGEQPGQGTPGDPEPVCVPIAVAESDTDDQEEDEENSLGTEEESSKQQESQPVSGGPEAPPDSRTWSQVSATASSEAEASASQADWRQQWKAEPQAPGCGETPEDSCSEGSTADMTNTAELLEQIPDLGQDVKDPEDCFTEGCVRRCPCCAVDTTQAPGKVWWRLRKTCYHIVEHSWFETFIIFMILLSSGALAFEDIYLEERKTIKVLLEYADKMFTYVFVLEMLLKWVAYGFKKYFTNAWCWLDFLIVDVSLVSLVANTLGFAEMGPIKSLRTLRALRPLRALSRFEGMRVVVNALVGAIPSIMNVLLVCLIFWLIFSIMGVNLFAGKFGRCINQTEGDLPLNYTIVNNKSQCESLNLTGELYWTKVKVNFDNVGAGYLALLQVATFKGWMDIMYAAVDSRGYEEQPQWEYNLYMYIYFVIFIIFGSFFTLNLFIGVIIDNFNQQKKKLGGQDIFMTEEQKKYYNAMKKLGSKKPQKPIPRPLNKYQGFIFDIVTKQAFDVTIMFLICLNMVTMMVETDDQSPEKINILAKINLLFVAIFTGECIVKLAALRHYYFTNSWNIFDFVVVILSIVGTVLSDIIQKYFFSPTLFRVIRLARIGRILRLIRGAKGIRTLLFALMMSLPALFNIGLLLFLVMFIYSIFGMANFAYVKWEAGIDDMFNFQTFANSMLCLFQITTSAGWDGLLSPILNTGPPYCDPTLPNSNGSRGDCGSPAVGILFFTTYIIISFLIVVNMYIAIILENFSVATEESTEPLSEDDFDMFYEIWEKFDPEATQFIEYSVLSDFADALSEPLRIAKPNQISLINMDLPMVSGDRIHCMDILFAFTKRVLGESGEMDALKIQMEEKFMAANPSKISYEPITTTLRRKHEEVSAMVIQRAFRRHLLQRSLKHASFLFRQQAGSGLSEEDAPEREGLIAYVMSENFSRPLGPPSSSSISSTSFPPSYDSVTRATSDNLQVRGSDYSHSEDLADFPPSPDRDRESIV
# In short: as §1
# hERG = hERG (Homo sapiens, UniProt Q12809); assay: in vitro; conditions: 100% = no change, <100% = inhibition
# In short: as §1
# GABA = assay: Ion channel panel (IonWorks Barracuda): GABA; assay type: cell-based; conditions: 100% = no change, <100% = inhibition
# In short: as §1
# Kir2.1 = biological target: T6, Kir2.1 (Homo sapiens, UniProt P63252); assay: Ion channel panel (IonWorks Barracuda): Kir2.1; assay type: cell-based; conditions: 100% = no change, <100% = inhibition
# T6 construct: host or cells: HEK293 or CHO
# In short: as §1
# Kv2.1 = biological target: T7, Kv2.1 (Homo sapiens, UniProt Q14721); assay: cell-based; conditions: 100% = no change, <100% = inhibition
# T7 construct: host or cells: HEK293 or CHO
# In short: as §1
# Cav2.2 = biological target: T8, Cav2.2 (Homo sapiens, UniProt Q00975); assay: cell-based; conditions: 100% = no change, <100% = inhibition
# T8 construct: host or cells: HEK293 or CHO
# In short: as §1
# Cav2.1 = biological target: T9, Cav2.1 (Homo sapiens, UniProt O00555); assay: cell-based; conditions: 100% = no change, <100% = inhibition
# T9 construct: host or cells: HEK293 or CHO
# In short: as §1
# NR2A = biological target: T10, NR2A (Homo sapiens, UniProt Q12879); assay: Ion channel panel (IonWorks Barracuda): NR2A; assay type: cell-based; conditions: 100% = no change, <100% = inhibition
# T10 construct: host or cells: HEK293 or CHO
# In short: as §1
# NR2B = biological target: T11, NR2B (Homo sapiens, UniProt Q13224); assay: Ion channel panel (IonWorks Barracuda): NR2B; assay type: cell-based; conditions: 100% = no change, <100% = inhibition
# T11 construct: host or cells: HEK293 or CHO
# In short: as §1
# TRPV1 = biological target: T12, TRPV1 (Homo sapiens, UniProt Q8NER1); assay: Ion channel panel (IonWorks Barracuda): TRPV1; assay type: cell-based; conditions: 100% = no change, <100% = inhibition
# T12 construct: host or cells: HEK293 or CHO
# In short: as §1
# 5HT3a = biological target: T13, 5HT3a (Homo sapiens, UniProt P46098); assay: Ion channel panel (IonWorks Barracuda): 5HT3a; assay type: cell-based
# T13 construct: host or cells: HEK293 or CHO
# T13 sequence (P46098 whole entry, looked up): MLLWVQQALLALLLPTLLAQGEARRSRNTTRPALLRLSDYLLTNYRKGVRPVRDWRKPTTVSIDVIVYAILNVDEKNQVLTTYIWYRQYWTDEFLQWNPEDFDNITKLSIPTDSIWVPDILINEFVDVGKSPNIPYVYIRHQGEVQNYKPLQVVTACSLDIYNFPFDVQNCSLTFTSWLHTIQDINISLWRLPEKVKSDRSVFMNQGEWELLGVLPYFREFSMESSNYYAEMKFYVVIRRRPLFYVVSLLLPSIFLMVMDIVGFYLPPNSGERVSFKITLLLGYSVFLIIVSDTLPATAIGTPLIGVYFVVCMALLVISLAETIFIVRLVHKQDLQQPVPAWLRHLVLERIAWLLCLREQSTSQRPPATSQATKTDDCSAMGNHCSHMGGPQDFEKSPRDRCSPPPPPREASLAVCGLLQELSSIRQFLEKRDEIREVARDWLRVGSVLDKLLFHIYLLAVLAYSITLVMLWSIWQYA
# In short: as §1
# TRPA1 = biological target: T14, TRPA1 (Homo sapiens, UniProt O75762); assay: Ion channel panel (IonWorks Barracuda): TRPA1; assay type: cell-based; conditions: 100% = no change, <100% = inhibition
# T14 construct: host or cells: HEK293 or CHO
# T14 sequence (O75762 whole entry): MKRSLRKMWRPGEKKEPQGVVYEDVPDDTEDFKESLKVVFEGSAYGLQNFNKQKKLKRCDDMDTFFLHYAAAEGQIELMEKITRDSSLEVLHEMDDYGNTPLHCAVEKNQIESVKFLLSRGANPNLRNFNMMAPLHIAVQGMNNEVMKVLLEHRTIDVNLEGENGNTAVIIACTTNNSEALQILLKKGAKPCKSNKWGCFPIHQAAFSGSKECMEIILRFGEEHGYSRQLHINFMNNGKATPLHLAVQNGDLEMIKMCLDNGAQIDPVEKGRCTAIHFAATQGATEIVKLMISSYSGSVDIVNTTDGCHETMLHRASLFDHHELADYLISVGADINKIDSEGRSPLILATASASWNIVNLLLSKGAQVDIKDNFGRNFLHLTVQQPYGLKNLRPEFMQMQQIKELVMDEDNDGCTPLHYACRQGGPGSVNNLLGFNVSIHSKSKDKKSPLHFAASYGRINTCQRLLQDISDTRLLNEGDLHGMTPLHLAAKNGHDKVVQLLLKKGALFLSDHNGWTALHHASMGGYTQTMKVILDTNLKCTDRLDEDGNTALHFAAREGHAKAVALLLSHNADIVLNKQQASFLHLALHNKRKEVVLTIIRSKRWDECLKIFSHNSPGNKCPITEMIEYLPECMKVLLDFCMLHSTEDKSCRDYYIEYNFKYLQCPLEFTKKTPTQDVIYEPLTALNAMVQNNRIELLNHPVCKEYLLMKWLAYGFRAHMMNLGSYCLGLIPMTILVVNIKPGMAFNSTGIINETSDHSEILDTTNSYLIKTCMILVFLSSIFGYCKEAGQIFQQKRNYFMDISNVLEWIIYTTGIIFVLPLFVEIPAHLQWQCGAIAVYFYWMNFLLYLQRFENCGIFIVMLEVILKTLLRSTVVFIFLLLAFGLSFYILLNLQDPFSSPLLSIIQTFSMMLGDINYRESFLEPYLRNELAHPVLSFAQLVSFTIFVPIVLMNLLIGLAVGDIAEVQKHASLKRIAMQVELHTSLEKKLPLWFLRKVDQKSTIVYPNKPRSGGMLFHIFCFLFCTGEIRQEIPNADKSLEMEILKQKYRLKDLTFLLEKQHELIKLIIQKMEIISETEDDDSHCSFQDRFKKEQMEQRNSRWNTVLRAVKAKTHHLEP
# In short: as §1
# α3β4 = biological target: T15, α3β4 (Homo sapiens, UniProt P30926+P32297); assay: Ion channel panel (IonWorks Barracuda): α3β4; assay type: cell-based; conditions: 100% = no change, <100% = inhibition
# T15 construct: host or cells: HEK293 or CHO
# In short: as §1
# [1] = first of two Nav1.7 columns (probably TP1)
# [2] = second of two Nav1.7 columns (probably TP2)
# [3] = first of two Nav1.5 columns (probably TP1)
# [4] = second of two Nav1.5 columns (probably TP2)
substance,measurement,setting,value
22 (GSSDYCSNDFCFFSCRRDRCARGDCENGKCVCKNCHLN) [compound 22],"Activity of Kv1.3 with peptide, expressed as a percentage of the reference compound",Kv1.3; peptide at 0.2 μM,100%
same,Activity of Kv1.3 with peptide (percentage of the reference compound),Kv1.3; peptide at 20 μM,51%
same,"Activity of Kv1.2 with peptide, expressed as a percentage of the reference compound",Kv1.2; peptide at 0.2 μM,82%
same,Activity of Kv1.2 with peptide (percentage of the reference compound),Kv1.2; peptide at 20 μM,34%
same,"Activity of Kv1.1 with peptide, expressed as a percentage of the reference compound",Kv1.1; peptide at 0.2 μM,83%
same,Activity of Kv1.1 with peptide (percentage of the reference compound),Kv1.1; peptide at 20 μM,97%
same,"Activity of a4b2 with peptide, expressed as a percentage of the reference compound",α4β2; peptide at 0.2 μM,92%
same,Activity of a4b2 with peptide (percentage of the reference compound),α4β2; peptide at 20 μM,83%
same,"Activity of Nav1.7 with peptide, expressed as a percentage of the reference compound",Nav1.7; [1],79%
same,"Activity of Nav1.7 with peptide, expressed as a percentage of the reference compound",Nav1.7; [2],81%
same,Activity of Nav1.7 with peptide (percentage of the reference compound),Nav1.7; [1],94%
same,Activity of Nav1.7 with peptide (percentage of the reference compound),Nav1.7; [2],87%
same,"Activity of Nav1.5 with peptide, expressed as a percentage of the reference compound",Nav1.5; [3],90%
same,"Activity of Nav1.5 with peptide, expressed as a percentage of the reference compound",Nav1.5; [4],90%
same,Activity of Nav1.5 with peptide (percentage of the reference compound),Nav1.5; [3],112%
same,Activity of Nav1.5 with peptide (percentage of the reference compound),Nav1.5; [4],116%
same,"Activity of hERG with peptide, expressed as a percentage of the reference compound",hERG; peptide at 0.2 μM,84%
same,Activity of hERG with peptide (percentage of the reference compound),hERG; peptide at 20 μM,79%
same,"Activity of GABA with peptide, expressed as a percentage of the reference compound",GABA; peptide at 0.2 μM,99%
same,Activity of GABA with peptide (percentage of the reference compound),GABA; peptide at 20 μM,124%
same,"Activity of Kir2.1 with peptide, expressed as a percentage of the reference compound",Kir2.1; peptide at 0.2 μM,94%
same,Activity of Kir2.1 with peptide (percentage of the reference compound),Kir2.1; peptide at 20 μM,97%
same,"Activity of Kv2.1 with peptide, expressed as a percentage of the reference compound",Kv2.1; peptide at 0.2 μM,110%
same,Activity of Kv2.1 with peptide (percentage of the reference compound),Kv2.1; peptide at 20 μM,93%
same,"Activity of Cav2.2 with peptide, expressed as a percentage of the reference compound",Cav2.2; peptide at 0.2 μM,130%
same,Activity of Cav2.2 with peptide (percentage of the reference compound),Cav2.2; peptide at 20 μM,86%
same,"Activity of Cav2.1 with peptide, expressed as a percentage of the reference compound",Cav2.1; peptide at 0.2 μM,98%
same,Activity of Cav2.1 with peptide (percentage of the reference compound),Cav2.1; peptide at 20 μM,99%
same,"Activity of NR2A with peptide, expressed as a percentage of the reference compound",NR2A; peptide at 0.2 μM,107%
same,Activity of NR2A with peptide (percentage of the reference compound),NR2A; peptide at 20 μM,129%
same,"Activity of NR2B with peptide, expressed as a percentage of the reference compound",NR2B; peptide at 0.2 μM,94%
same,Activity of NR2B with peptide (percentage of the reference compound),NR2B; peptide at 20 μM,97%
same,"Activity of TRPV1 with peptide, expressed as a percentage of the reference compound",TRPV1; peptide at 0.2 μM,102%
same,Activity of TRPV1 with peptide (percentage of the reference compound),TRPV1; peptide at 20 μM,67%
same,Activity of 5HT3a with peptide (percentage of the reference compound),5HT3a,95%
same,"Activity of 5HT3a with peptide, expressed as a percentage of the reference compound",5HT3a,77%
same,"Activity of TRPA1 with peptide, expressed as a percentage of the reference compound",TRPA1; peptide at 0.2 μM,90%
same,Activity of TRPA1 with peptide (percentage of the reference compound),TRPA1; peptide at 20 μM,128%
same,"Activity of a3b4 with peptide, expressed as a percentage of the reference compound",α3β4; peptide at 0.2 μM,98%
same,Activity of a3b4 with peptide (percentage of the reference compound),α3β4; peptide at 20 μM,92%

# Source: US20200262877A1, “ION CHANNEL-BINDING PEPTIDES AND METHODS OF USE THEREOF” (priority 2017, published 2020)
